Measured values reported in US20250109201A1 (AGENUS, published 2025).

Key:
[1] = biological target: T1, human ILT2 extracellular and transmembrane domains expressed on CHO cells (human, UniProt Q8NHL6 24-482, limits assumed); assay: flow cytometry, CHO cells with high human ILT2
T1 construct: domain: extracellular and transmembrane domains; which one is told under assay; also called CHO cells expressing human ILT2 (relatively low or relatively high level); CHO-ILT2 cells
Method: For the antibody binding assay, the cells were seeded in a 96-well U-bottom tissue culture plate at a density of 3×10⁵ cells per well in 25 μL of PBS supplemented with 0.5% BSA, 1 mM EDTA and 0.05% sodium azide (FACS Buffer). The cells were incubated for 30 minutes at 4° C. with […] of a series dilution of anti-ILT2 antibodies or isotype control at concentrations from 10 μg/mL to 2.4 ng/mL in FACS Buffer.
After a 30-minute incubation in the dark at 4° C., the cells were washed twice with cold FACS Buffer, and the cells were analyzed by flow cytometry (BD LSR Fortessa Flow Cytometer). CHO-ILT2 cells were identified and MFI was calculated as above.

[2] = biological target: T2, ECD-His tagged human ILT2 haplotype PE01 (human, UniProt Q8NHL6 24-458); assay: SPR, ILT2 PE01 ECD-His, average of two measurements
T2 construct: also called Human ILT2 PE01 ECD; LILRB1/ILT2 PE01; not shown: His tag
T2 sequence (Q8NHL6 24-458): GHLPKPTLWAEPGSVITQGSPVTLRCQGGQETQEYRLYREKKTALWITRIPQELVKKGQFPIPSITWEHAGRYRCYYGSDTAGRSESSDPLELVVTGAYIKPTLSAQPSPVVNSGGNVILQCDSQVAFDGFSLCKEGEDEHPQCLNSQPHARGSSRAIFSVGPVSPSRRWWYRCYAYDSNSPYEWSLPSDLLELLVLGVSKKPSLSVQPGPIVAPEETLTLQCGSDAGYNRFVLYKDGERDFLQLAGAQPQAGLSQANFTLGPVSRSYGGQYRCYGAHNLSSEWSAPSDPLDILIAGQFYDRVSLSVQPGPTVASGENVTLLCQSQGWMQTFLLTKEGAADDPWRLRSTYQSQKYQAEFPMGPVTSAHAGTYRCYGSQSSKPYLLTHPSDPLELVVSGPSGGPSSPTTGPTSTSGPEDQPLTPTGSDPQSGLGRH
Method: (§1) Briefly, SPR experiments were performed using a Biacore T200 instrument, and the association rate (Kₐ), dissociation rate (Kd), and dissociation constant (KD) were calculated from each experiment using a 1:1 binding model with Biacore™ T200 Evaluation Software. Capture of antibodies from the Human Fab Capture kit (28958325, GE Healthcare) to the Series S CM5 sensor chip (29149603, GE Healthcare) was performed using the immobilization wizard for amine coupling from the Biacore™ control panel and following the manufacturer's recommendations included with the kit.
Variants of irrelevant antibody VRC01 (with IgG1, IgG1 N297A, IgG4 S228P, IgG2, or IgG2 C127S constant regions) were used as negative isotype controls. The binding kinetics are shown in Table 5 as an average from two independent measurements.

[3] = biological target: T3, full-length ILT2 expressed on Jurkat cells (human, UniProt Q8NHL6 24-650); assay: flow cytometry, Jurkat cells expressing human ILT2
T3 construct: whole, on cells; The Jurkat line also carries FcgRIIIa and an NFAT-luciferase reporter (Promega/G7102); also called Jurkat cells expressing human ILT2; ILT2-expressing Jurkat reporter cells
T3 sequence (Q8NHL6 24-650): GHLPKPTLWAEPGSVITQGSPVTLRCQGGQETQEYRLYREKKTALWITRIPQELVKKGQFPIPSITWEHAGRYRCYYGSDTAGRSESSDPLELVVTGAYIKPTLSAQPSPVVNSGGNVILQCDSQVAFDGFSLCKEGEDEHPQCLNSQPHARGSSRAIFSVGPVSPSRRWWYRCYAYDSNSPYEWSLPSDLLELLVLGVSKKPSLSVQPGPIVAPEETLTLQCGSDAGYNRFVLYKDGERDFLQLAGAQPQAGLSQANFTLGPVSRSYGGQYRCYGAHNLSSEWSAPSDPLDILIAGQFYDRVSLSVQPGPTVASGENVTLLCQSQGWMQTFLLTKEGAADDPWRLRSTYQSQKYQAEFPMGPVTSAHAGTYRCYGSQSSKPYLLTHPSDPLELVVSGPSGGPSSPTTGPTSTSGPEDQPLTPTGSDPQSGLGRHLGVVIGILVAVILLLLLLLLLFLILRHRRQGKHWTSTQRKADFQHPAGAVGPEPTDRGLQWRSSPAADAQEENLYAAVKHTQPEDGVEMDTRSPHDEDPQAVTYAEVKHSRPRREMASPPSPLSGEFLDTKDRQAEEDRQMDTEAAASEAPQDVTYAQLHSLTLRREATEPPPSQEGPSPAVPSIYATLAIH

[4] = biological target: T1, human ILT2 extracellular and …; assay: flow cytometry, CHO cells with low human ILT2
Method: For the antibody binding assay, the cells were seeded in a 96-well U-bottom tissue culture plate at a density of 3×10⁵ cells per well in 25 μL of PBS supplemented with 0.5% BSA, 1 mM EDTA and 0.05% sodium azide (FACS Buffer). The cells were incubated for 30 minutes at 4° C. with 25 μL of a series dilution of anti-ILT2 antibodies or isotype control, at final concentrations ranging from 10 μg/mL to 0.2 ng/mL in FACS Buffer.
After a 30-minute incubation in the dark at 4° C., the cells were washed twice with cold FACS Buffer, and the cells were analyzed by flow cytometry (BD LSR Fortessa Flow Cytometer). CHO cells were identified using a plot of forward scatter-area (FSC-A) versus side scatter area (SSC-A) and another plot of FSC-A versus forward scatter-height (FSC-H) for selection of single cells. Samples were analyzed by sequentially gating on the single cell population and plotting histograms representing the fluorescence in the PE channel. For each sample, mean fluorescence intensity (MFI) was calculated, and the data were plotted by GraphPad Prism software.

[5] = biological target: T4, ECD-His tagged human ILT2 haplotype PE03 (human, UniProt Q8NHL6 24-458); assay: SPR, captured antibody, ILT2 ECD-His analyte
T4 construct: also called Human ILT2 PE03 ECD (Sino biological, 16014-H08H); not shown: His tag
T4 sequence (Q8NHL6 other isoform, or with tags, fused parts or gaps): as the sequence (Q8NHL6 24-458) above, with L45P, I119T, S132I counted along it
Method: (§2) The binding affinity of anti-ILT2 antibody variants with IgG1 N297A constant regions to ECD-His tagged human ILT2 haplotypes PE01, PE02, PE03 (see Table 1) was assessed by surface plasmon resonance (SPR).
as §1
(§3) Approximately 3 μg/mL of tested anti-ILT2 antibodies and controls diluted in a running buffer (10 mM HEPES, 150 mM NaCl, 3 mM EDTA, and 0.05% surfactant P20) were captured in individual flow cells of previously prepared anti Human Fab CM5 chip, keeping a single flow cell as a reference. Antibodies were captured using a 30 sec injection at a flow rate of 10 μL/min to reach about 150 resonance units (Rus). Human ILT2 ECD PE01 (diluted in the running buffer at the concentration of 30, 10, 3.3, 1.11, 0.37, 0.12 nM), and human ILT2 ECD PE02 and PE03 (diluted in the running buffer at the concentration of 33.3, 11.1, 3.7, 1.2, 0.41, 0.14 nM), were flowed over the chip surface at a flow rate of 30 μL/min with a 3-min association phase and a 10-min dissociation phase. The sensor chip was regenerated between cycles with a double 30-sec injection of 10 mM glycine, pH 2.1 at 30 μL/min followed by stabilization period of 60s. Sensorgrams were evaluated and fit to a simple Langmuir 1:1 interaction model using the global data analysis option of BIAevaluation 3.1 software. Data quality was verified by visually inspecting deviations and curve fitting, and by evaluating the parameters of Rₘₐₓ, Chi2, and Tc.

[6] = biological target: T5, ECD-His tagged human ILT2 haplotype PE02 (human, UniProt Q8NHL6 24-458); assay: SPR, captured antibody, ILT2 ECD-His analyte
T5 construct: also called Human ILT2 PE02 ECD; not shown: His tag
T5 sequence (Q8NHL6 other isoform, or with tags, fused parts or gaps): as the sequence (Q8NHL6 24-458) above, with L45P, A70T, I119T, S132I counted along it
Method: as §2, §1, §3

[7] = biological target: T2, ECD-His tagged human ILT2 haplotype PE01; assay: SPR, captured antibody, ILT2 ECD-His analyte
Method: as §2, §1, §3

T1 sequence (Q8NHL6 24-482 limits assumed): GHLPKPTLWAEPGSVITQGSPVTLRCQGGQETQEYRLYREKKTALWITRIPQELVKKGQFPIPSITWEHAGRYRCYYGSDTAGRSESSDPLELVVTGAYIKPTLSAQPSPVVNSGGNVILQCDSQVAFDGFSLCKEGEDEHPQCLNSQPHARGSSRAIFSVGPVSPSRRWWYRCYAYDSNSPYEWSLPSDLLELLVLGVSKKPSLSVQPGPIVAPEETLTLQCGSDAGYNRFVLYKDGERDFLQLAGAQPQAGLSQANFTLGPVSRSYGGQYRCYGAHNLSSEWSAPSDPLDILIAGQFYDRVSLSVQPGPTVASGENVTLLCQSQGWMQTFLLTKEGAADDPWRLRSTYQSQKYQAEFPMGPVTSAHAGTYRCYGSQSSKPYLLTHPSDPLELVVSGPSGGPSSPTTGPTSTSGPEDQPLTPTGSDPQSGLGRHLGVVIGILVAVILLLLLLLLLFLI

AUC [1]	EC50 [1]	Kd [2]	koff [2]	kon [2]	Binder	also measured
264000	0.248 µg/mL	170 pM	5.4e-05 s⁻¹	340000 M⁻¹ s⁻¹	BA217 (antibody, human IgG2, kappa) heavy: QVQLVQSGAEVKKPGASVKVSCKASGYTFNRYYMHWVRQAPGQGLEWMGWINPYTGGTNYAQKFQGRVTMTRDTSISTAYMELSRLRSDDTAVYYCASKQPSSDYWGQGTLVTVSSASTKGPSVFPLAPCSRSTSESTAALGCLVKDYFPEPVTVSWNSGALTSGVHTFPAVLQSSGLYSLSSVVTVPSSNFGTQTYTCNVDHKPSNTKVDKTVERKCCVECPPCPAPPVAGPSVFLFPPKPKDTLMISRTPEVTCVVVDVSHEDPEVQFNWYVDGVEVHNAKTKPREEQFNSTFRVVSVLTVVHQDWLNGKEYKCKVSNKGLPAPIEKTISKTKGQPREPQVYTLPPSREEMTKNQVSLTCLVKGFYPSDIAVEWESNGQPENNYKTTPPMLDSDGSFFLYSKLTVDKSRWQQGNVFSCSVMHEALHNHYTQKSLSLSPGK light: not shown	–
307000	0.183 µg/mL	140 pM	4.8e-05 s⁻¹	350000 M⁻¹ s⁻¹	BA219 (antibody, human IgG2, kappa) heavy: QVQLVQSGAEVKKPGASVKVSCKASGYTFNRYYMHWVRQAPGQGLEWMGWINPYTGGTNYAQKFQGRVTMTRDTSISTAYMELSRLRSDDTAVYYCASKQPSSDYWGQGTLVTVSSASTKGPSVFPLAPSSRSTSESTAALGCLVKDYFPEPVTVSWNSGALTSGVHTFPAVLQSSGLYSLSSVVTVPSSNFGTQTYTCNVDHKPSNTKVDKTVERKCCVECPPCPAPPVAGPSVFLFPPKPKDTLMISRTPEVTCVVVDVSHEDPEVQFNWYVDGVEVHNAKTKPREEQFNSTFRVVSVLTVVHQDWLNGKEYKCKVSNKGLPAPIEKTISKTKGQPREPQVYTLPPSREEMTKNQVSLTCLVKGFYPSDIAVEWESNGQPENNYKTTPPMLDSDGSFFLYSKLTVDKSRWQQGNVFSCSVMHEALHNHYTQKSLSLSPGK light: not shown	–
295000	0.227 µg/mL	190 pM	7e-05 s⁻¹	390000 M⁻¹ s⁻¹	BA218 (antibody, human IgG2, kappa) heavy: QVQLVQSGAEVKKPGASVKVSCKASGYTFNRYYMHWVRQAPGQGLEWMGWINPYTGGTNYAQKFQGRVTMTRDTSISTAYMELSRLRSDDTAVYYCASKQPSSDYWGQGTLVTVSSASTKGPSVFPLAPCSRSTSESTAALGCLVKDYFPEPVTVSWNSGALTSGVHTFPAVLQSSGLYSLSSVVTVPSSNFGTQTYTCNVDHKPSNTKVDKTVERKCCVECPPCPAPPVAGPSVFLFPPKPKDTLMISRTPEVTCVVVDVSHEDPEVQFNWYVDGVEVHNAKTKPREEQFNSTFRVVSVLTVVHQDWLNGKEYKCKVSNKGLPAPIEKTISKTKGQPREPQVYTLPPSREEMTKNQVSLTCLVKGFYPSDIAVEWESNGQPENNYKTTPPMLDSDGSFFLYSKLTVDKSRWQQGNVFSCSVMHEALHNHYTQKSLSLSPGK light: not shown	–
–	–	310 pM	9.7e-05 s⁻¹	330000 M⁻¹ s⁻¹	BA247 (antibody, human IgG2, kappa) heavy: QVQLVQSGAEVKKPGASVKVSCKASGYTFNRYYMHWVRQAPGQGLEWMGWINPYTGGTNYAQKFQGRVTMTRDTSISTAYMELSRLRSDDTAVYYCASKQPSSDYWGQGTLVTVSSASTKGPSVFPLAPSSRSTSESTAALGCLVKDYFPEPVTVSWNSGALTSGVHTFPAVLQSSGLYSLSSVVTVPSSNFGTQTYTCNVDHKPSNTKVDKTVERKCCVECPPCPAPPVAGPSVFLFPPKPKDTLMISRTPEVTCVVVDVSHEDPEVQFNWYVDGVEVHNAKTKPREEQFNSTFRVVSVLTVVHQDWLNGKEYKCKVSNKGLPAPIEKTISKTKGQPREPQVYTLPPSREEMTKNQVSLTCLVKGFYPSDIAVEWESNGQPENNYKTTPPMLDSDGSFFLYSKLTVDKSRWQQGNVFSCSVMHEALHNHYTQKSLSLSPGK light: not shown	–
305000	0.282 µg/mL	140 pM	5.7e-05 s⁻¹	420000 M⁻¹ s⁻¹	BA220 (antibody, human IgG2, kappa) heavy: QVQLVQSGAEVKKPGASVKVSCKASGYTFNRYYMHWVRQAPGQGLEWMGWINPYTGGTNYAQKFQGRVTMTRDTSISTAYMELSRLRSDDTAVYYCASKQPSSDYWGQGTLVTVSSASTKGPSVFPLAPSSRSTSESTAALGCLVKDYFPEPVTVSWNSGALTSGVHTFPAVLQSSGLYSLSSVVTVPSSNFGTQTYTCNVDHKPSNTKVDKTVERKCCVECPPCPAPPVAGPSVFLFPPKPKDTLMISRTPEVTCVVVDVSHEDPEVQFNWYVDGVEVHNAKTKPREEQFNSTFRVVSVLTVVHQDWLNGKEYKCKVSNKGLPAPIEKTISKTKGQPREPQVYTLPPSREEMTKNQVSLTCLVKGFYPSDIAVEWESNGQPENNYKTTPPMLDSDGSFFLYSKLTVDKSRWQQGNVFSCSVMHEALHNHYTQKSLSLSPGK light: not shown	–
–	–	230 pM	7.4e-05 s⁻¹	330000 M⁻¹ s⁻¹	BA246 (antibody, human IgG2, kappa) heavy: QVQLVQSGAEVKKPGASVKVSCKASGYTFNRYYMHWVRQAPGQGLEWMGWINPYTGGTNYAQKFQGRVTMTRDTSISTAYMELSRLRSDDTAVYYCASKQPSSDYWGQGTLVTVSSASTKGPSVFPLAPCSRSTSESTAALGCLVKDYFPEPVTVSWNSGALTSGVHTFPAVLQSSGLYSLSSVVTVPSSNFGTQTYTCNVDHKPSNTKVDKTVERKCCVECPPCPAPPVAGPSVFLFPPKPKDTLMISRTPEVTCVVVDVSHEDPEVQFNWYVDGVEVHNAKTKPREEQFNSTFRVVSVLTVVHQDWLNGKEYKCKVSNKGLPAPIEKTISKTKGQPREPQVYTLPPSREEMTKNQVSLTCLVKGFYPSDIAVEWESNGQPENNYKTTPPMLDSDGSFFLYSKLTVDKSRWQQGNVFSCSVMHEALHNHYTQKSLSLSPGK light: not shown	–
–	–	–	–	–	BA212 (antibody, human IgG1, kappa, N297A, V domains shown) VH: QVQLVQSGAEVKKPGASVKVSCKASGYTFNRYYMHWVRQAPGQGLEWMGWINPYTGGTNYAQKFQGRVTMTRDTSISTAYMELSRLRSDDTAVYYCASKQPSSDYWGQGTLVTVSS VL: not shown	AUC [3]: 222000; EC50 [3]: 0.057 µg/mL; AUC [4]: 15100; EC50 [4]: 0.087 µg/mL; Kd [5]: 875 pM; koff [5]: 0.0004 s⁻¹; kon [5]: 460000 M⁻¹ s⁻¹; Kd [6]: 783 pM; koff [6]: 0.00021 s⁻¹; kon [6]: 270000 M⁻¹ s⁻¹; Kd [7]: 89 pM; koff [7]: 3.3e-06 s⁻¹; kon [7]: 37000 M⁻¹ s⁻¹
